The numbers were not newly measured in PMC3025320, which cites them from elsewhere.

The target in one series is C3d C3d (Homo sapiens) (UniProt P01024). Description: ITC.
Series [1] has as its target C3d C3d (996-1303) (Homo sapiens) (UniProt P01024). Description: ITC.

Chain of C3d C3d (Homo sapiens) (P01024 1002-1303): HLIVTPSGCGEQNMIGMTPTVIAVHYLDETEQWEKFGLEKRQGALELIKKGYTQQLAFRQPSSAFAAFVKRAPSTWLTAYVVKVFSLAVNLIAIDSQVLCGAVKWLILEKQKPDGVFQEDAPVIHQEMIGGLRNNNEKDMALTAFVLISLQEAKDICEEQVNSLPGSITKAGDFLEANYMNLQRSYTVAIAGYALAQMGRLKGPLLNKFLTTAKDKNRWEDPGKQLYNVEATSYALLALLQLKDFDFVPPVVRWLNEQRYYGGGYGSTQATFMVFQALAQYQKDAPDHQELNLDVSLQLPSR
Chain of C3d C3d (996-1303) (Homo sapiens) (P01024 996-1303): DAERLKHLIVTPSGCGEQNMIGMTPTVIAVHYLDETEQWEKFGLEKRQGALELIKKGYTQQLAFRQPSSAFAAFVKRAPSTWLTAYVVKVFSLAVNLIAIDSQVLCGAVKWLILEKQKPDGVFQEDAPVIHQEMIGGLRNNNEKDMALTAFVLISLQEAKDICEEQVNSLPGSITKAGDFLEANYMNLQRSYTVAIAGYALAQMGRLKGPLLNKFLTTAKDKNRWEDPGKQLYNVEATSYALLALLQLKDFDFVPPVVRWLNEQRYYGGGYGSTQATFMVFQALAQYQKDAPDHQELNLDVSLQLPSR
Chain of Efb-C Efb-C (P68799 101-165): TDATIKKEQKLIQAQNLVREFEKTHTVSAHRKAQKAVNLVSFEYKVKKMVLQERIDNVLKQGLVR

Broadly, the Kd is the free concentration of one partner at which half of the binding sites on the other are occupied at equilibrium, for simple one-to-one binding. For the substance Efb-C Efb-C (from UniProt P68799), the Kd with C3d C3d (Homo sapiens) is 2 nM.

For the substance “Sbi-III-IV domains III-IV (from UniProt A7X659)”, in the series with C3d C3d (Homo sapiens), the Kd is 400 nM. As for “Sbi-III–IV domains III-IV (from UniProt A7X659)”, the equilibrium dissociation constant (Kd) in series [1] was 400 nM.

On to Sbi-IV domain IV (from UniProt A7X659), for which the Kd (with C3d C3d (Homo sapiens); in series [1]) was 360 nM each time.
